Measurements: doi:10.1101/2021.05.31.446396 (bioRxiv, 2021)
Changes are numbered by the printed parent chain. Names may count otherwise.

Target: the molecule itself
Test: SEC

B1: D3 domain of EccCb1 (349-580 residues), wild type (domain or fragment)
chain: EIPIGLRETDLTPAHCHMHTNPHLLIFGAAKSGKTTIAHAIARAICARNSPQQVRFMLADYRSGLLDAVPDTHLLGAGAINRNSASLDEAVQALAVNLKKRLPPTDLTTAQLRSRSWWSGFDVVLLVDDWHMIVGAAGGMPPMAPLAPLLPAAADIGLHIIVTCQMSQAYKATMDKFVGAAFGSGAPTMFLSGEKQEFPSSEFKVKRRPPGQAFLVSPDGKEVIQAPYIEPP
- stoichiometry N: 2

B2: D2 domain of EccCb1 (35-316 residues), wild type (domain or fragment)
chain: NPVPLNELIARDRRQPLRFALGIMDEPRRHLQDVWGVDVSGAGGNIGIGGAPQTGKSTLLQTMVMSAAATHSPRNVQFYCIDLGGGGLIYLENLPHVGGVANRSEPDKVNRVVAEMQAVMRQRETTFKEHRVGSIGMYRQLRDDPSQPVASDPYGDVFLIIDGWPGFVGEFPDLEGQVQDLAAQGLAFGVHVIISTPRWTELKSRVRDYLGTKIEFRLGDVNETQIDRITREIPANRPGRAVSMEKHHLMIGVPRFDGVHSADNLVEAITAGVTQIASQHTE
- stoichiometry N: 2

B3: D2 domain of EccCb1 (35-316 residues), K90A mutant (domain or fragment)
chain: B2 chain with K56A
- stoichiometry N: 2

B4: D2 domain of EccCb1 (35-316 residues), S91A mutant (domain or fragment)
chain: B2 chain with S57A
- stoichiometry N: 2

B5: D2 domain of EccCb1 (35-316 residues), Q87A mutant (domain or fragment)
chain: B2 chain with Q53A
- stoichiometry N: 2

B6: D2 domain of EccCb1 (35-316 residues), T92A mutant (domain or fragment)
chain: B2 chain with T58A
- stoichiometry N: 2
